{"source": "patent US20210363204A1", "test_in_all_cases": "cell-based or functional assay", "key": {"human Nav1.6 (human)": {"target": "human Nav1.6 (human) (UniProt Q9UQD0)"}, "human Nav1.5 (human)": {"target": "human Nav1.5 (human) (UniProt Q14524)"}, "human Nav1.7 (human)": {"target": "human Nav1.7 (human) (UniProt Q15858)"}}, "data": [{"substance": "recombinant Protoxin-II (peptide)", "values": [{"measurement": "IC50, QPatch electrophysiology assay", "setting": "human Nav1.6 (human)", "result": "6.2e-08", "unit": "M"}, {"measurement": "ratio of IC50 for Nav1.6 to IC50 for Nav1.7, QPatch", "setting": "human Nav1.6 (human)", "result": 28, "unit": "fold"}]}, {"substance": "recombinant Protoxin-II NV1D12 (peptide)", "values": [{"measurement": "hNav1.5 QPatch IC50", "setting": "human Nav1.5 (human)", "result": "> 1000", "unit": "nM"}]}, {"substance": "wild type Protoxin-II (peptide)", "values": [{"measurement": "IC50, FLIPR Tetra membrane depolarization assay", "setting": "human Nav1.7 (human)", "result": 4, "unit": "nM"}]}]}
